Source: the DeepSol protein solubility set

Assay: soluble on expression in E. coli; label from the status in PepcDB or PDB records
In the case of “SASFDGPKFKMTDGSYVQTKTIDVGSSTDISPYLSLIREDSILNGNRAVIFDVYWDVGFPETETKTKTSGWSLSSVKLSTRNLCLFLRLPKPFHDNLKDLYRFFASKFVTFVGVQIEEDLDLLRENHGLVIRNAINVGKLAAEARGTLVLEFLGTRELAHRVLWSDLGQLDSIEAKWEKAGPEEQLEAAAIEGWLIVNVWDQLSDE”, the “soluble on expression in E. coli” value is reported as “soluble”. In the case of “SASMDVEEFIGQNRQLADRVEAFRGFSESDKHWKGRREFIFRNMADFPEPQVDHLLALSMVWQNHVFMGCRYSSELLQRVMEMAEGIEVEDAPVFKTRDEIIRQQKQR”, the “soluble on expression in E. coli” value is reported as “soluble”. For “SATAQLSHCITIHKASKETVFPSQITNEHESLKMVKKLFATSISCITYLRGLFPESSYGERHLDDLSLKILREDKKCPGSLHIIRWIQGCFDALEKRYLRMAVLTLYTDPMGSEKVTEMYQFKFKYTKEGATMDFDSHSSSTSFESGTNNEDIKKASVLLIRKLYILMQDLEPLPNNVVLTMKLHYYNAVTPHDYQPLGFKEGVNSHFLLFDKEPINVQVGFVSTGFHSMKVKVMTEATKVIDLENNLFRENSTTEIAHQGLDCDEEEECNDHIQRMNFVCSQQSSECSRKKRKVSEPVKVFIPNRK”, the “soluble on expression in E. coli” value was “soluble”. With “SDFPPTKLDYHVDMFNLQSHSRFLSLFKAQDGRIALILESTVFHPQGGGQPSDTGLIVFSGSDLKFSVQDVRSKDGIVLHYGVFEGSNPESGIDSEKGKEVYLTVDESRRKLNSRLHSAGHLLDMCMQKVGLGHLEPGKGYHFPDGPFVEYKGSVPQEEFQVKQKELEAEANELISKGGKVYAAILPYEEASVLCGGSLPDYISKGSTPRIIKLGDSPGCPCGGTHVSNLSDIISMKMRTKKGMTKVFYTIAS” the “soluble on expression in E. coli” value was “soluble”. With “SDIEHILTAIAVLLEKRLDYDRGVIMMADAGGSALRVLASYGFDEAGRRVMHETPIALDGVGPRGVVAASFLDQKPFLVNDLDEINHLIPPLHRELGRRLGIRSFISCPIVCEGQSLGVLAVDTIRTG” the “soluble on expression in E. coli” value was “not soluble”. In the case of “SDKEYVGFAALPNQLHRKSVKKGFDFTLMVAGESGLGKSTLINSLFLTNLYEDRQVPEASARLTQTLAIERRGVEIEEGGVKVKLTLVDTPGFGDSVDCSDCWLPVVKFIEEQFEQYLRDESGLNRKNIQDSRVHCCLYFISPFGRGLRPLDVAFLRAVHEKVNIIPVIGKADALMPQETQALKQKIRDQLKEEEIHIYQFPECDSDEDEDFKRQDAEMKESIPFAVVGSCEVVRDGGNRPVRGRRYSWGTVEVENPHHCDFLNLRRMLVQTHLQDLKEVTHDLLYEGYRARCLQSLARPGARDRASRSKLSRQSATEIPLPMLPLADTEKLIREKDEELRRMQEMLEKMQAQMQQSQAQGEQSDAL”, the “soluble on expression in E. coli” value is reported as “soluble”. For “SDMGTSALSKKPWWTLPQNFHAPMVFHMEEDQEELIFGHGDTYLRCIEVHSHTLIQLESWFTATGQTRVTVGPHRARQWLLHMFCCVGSQDSYHHARGLEMLERVRSQPLTNDDLVTSISVPPYTGDLSLAPRISGTVCLSVPQPSPYQVIGCSGFHLSSLYP”, the “soluble on expression in E. coli” value was “soluble”. With “SEEDNRAPQLWRKTLTAPAPFADETNCQCQAPHEKLTIAQARLGTPADRPVRVYADGIFDLFHSGHARALMQAKTLFPNSYLLVGVCSDDLTHKFKGFTVMNEAERYEALRHCRYVDEVIRDAPWTLTPEFLEKHKIDFVAHDDIPYSSAGSDDVYKHIKEAGMFVPTQRTEGISTSDIITRIVRDYDVYARRNLQRGYTAKELNVSFINEKRYRFQNQVDKMKEKVKNVEERSKEFVNRVEEKSHDLIQKWEEKSREFIGNFLELFGPDGAWKQMFQERSSRMLQALSPKQSPVSSPTRSRSPSRSPSPTFSWLPLKTSPPSSPKAASASISSMSEGDEDEK” the “soluble on expression in E. coli” value was “soluble”. In the case of “SEFVLKHTAFAHLREVGSFPCTLNPHEAESLALVGAMIDQVLELHPGAQRLHIGCDEVYYLGEGEASRRWLQQEQNSTGKLCLSHMRAVASGVKARRPSVTPLVWDDMLRDLPEDQLAASGVPQLVEPVLWDYTADLDVHGKVLLMQKYRRCGFPQLWAASAFKGATGPSQAVPPVEHHLRNHVQWLQVAGSGPTDSLQGIILTGWQRYDHYSVLCELLPAGVPSLAACLQLLLRGGFDEDVKAKVENLLGISSLEKTDPVREGAGSFPGSNILALVTQVSLHLRSSVDALLEGNRYVTGWFSPYHRQRKLIHPVMVQHIQPAALSLLAQWSTLVQELEAALQLAFYPDAVEEWLEENVHPSLQRLQALLQDLSEVSAPPLPPTSPGRDVAQDP”, the “soluble on expression in E. coli” value is reported as “not soluble”. For “SEKAVHSSTTSGPAVPGETTKTGTSIIDTAASAVQSFAPVNQIHQHLCAFHFYADDMARQVEAHHFCSHVNEEMRQCLIYDGPDANARLIGLEYIVSEKLFMTLPDEEKKLWHSHEWEVKGGFLFMPGVPGAIQRKDLDKVAKTYGKVFHFWQVDLGHELPIGLPNVMMAVTRDGQLFHEMIQEAEKRFGVSVEGERDSRAYMSGPELGIHPLANGGGKGMKLELREVDIKPVESVGSVFV”, the “soluble on expression in E. coli” value was “soluble”. In the case of “SEPQEERETQVAAWLKKIFGDHPIPQYEVNPRTTEILHHLSERNRVRDRDVYLVIEDLKQKASEYESEAKYLQDLLMESVNFSPANLSSTGSRYLNALVDSAVALETKDTSLASFIPAVNDLTSDLFRTKSKSEEIKIELEKLEKNLTATLVLEKCLQEDVKKAELHLSTERAKVDNRRQNMDFLKAKSEEFRFGIKAAEEQLSARGMDASLSHQSLVALSEKLARLKQQTIPLKKKLESYLDLMPNPSLAQVKIEEAKRELDSIEAELTRRVDMMEL”, the “soluble on expression in E. coli” value is reported as “soluble”. For “SEQIMSSQQVARRMMLDIGDKPQEHLVAIYLDTQNRIIQQKTVFIGGVRRSIAEPREILYYACHLMATSLIVVHNHPSGEAYPSRNDIDFTQKIKRSCDDLGICLLDHLIVGKSTYYSFREEREDFEL”, the “soluble on expression in E. coli” value was “not soluble”. With “SGANISGGSPEFDRNDDVYSRKLRLVDLPENCVALIMTRLDPPEICRLARLNRMSRRASSADFIWESKLPANYRVIAHKVFDEITLTKLIKKDLYAKLSQPNLFDDGTKELWIDKNTGRLCLSISSKALRITGIDDRRYWSHIPTDESRFQSAAYVQQIWWFEVGGEFEIQFPSGTYSLFFRIQLGKTSKRLGRRICNSEHIHGWDIKPVRFQLATSDNQQAVSLCYLNNNPGSWSHYHVGDFKVTNPDVSTGIKFSMTQIDCTHTKGGLCIDSVLILPKECAKEVIGSQ” the “soluble on expression in E. coli” value was “soluble”. In the case of “SGGGGKAWPTHVVCSDSGLEVLYQSCDPLQDFGFSVEKCSKQLKSNINIRFGIILREDIKELFLDLALMSQGSSVLNFSYPICEAALPKFSFCGRRKGEQIYYAGPVNNPEFTIPQGEYQVLLELYTEKRSTVACANATIMCS”, the “soluble on expression in E. coli” value is reported as “soluble”. In the case of “SGKCYLSLHEHNSSANRGACAQICRRGYTVKDKDSGLELDIENQYIMSPKDLKTIHFINKMMDAGVRVFKIEGRARGPEYVYTVCRCYKEAIEAYCNGTYDEESIGRWDEQLATVFNRGFWDGYYLGQRLGEWTHRYGSGATRQKIYVGKGIKYFSRLGVAEFEIESGELHIGDEIVITGPTTGVIIQKVEEIRYELQTVEKATKGQRISIPVKEKVRPSDKLYRFDKRE”, the “soluble on expression in E. coli” value is reported as “not soluble”. With “SGQRPSLPMLATDERSTDKESPNEDREFVPCSSLDVRRIYPKGPLLVLPEKIYLYSEPTVKELLPFDVVINVAEEANDLRMQVPAVEYHHYRWEHDSQIALDLPSLTSIIHAATTKREKILIHSQCGLSRSATLIIAYIMKYHNLSLRHSYDLLKSRADKINPSIGLIFQLMEWEVALNAKT” the “soluble on expression in E. coli” value was “soluble”. In the case of “SGRPVAELLRKIHTSKALLDMLKRLGKEPLNPGALLSQLKQAVFAVQQSSPLIQEGIKYLEEHLHEVHFGEKVVCHCDVNHNNWLLSEDNQLYLIDWDGAMIADPAMDLGPLLYHYVEKPAWESWLSMYGIELTESLRLRMAWYVLSETITFIAWHKAKGNDKE”, the “soluble on expression in E. coli” value is reported as “not soluble”. For “SGVPVYICSSLKPDALAEAAEHQADGSFFVPRAKGLRTQKQWLAFYSESRGSVYVDEGAEHALSEQGKSLLMSGIAGIEGHFSRMDTVTVYSKATKQPLGKGRVLFGSAAAEDLLKSRKAKGVFIHRDDWISITPEIRLLLTEF”, the “soluble on expression in E. coli” value was “not soluble”. For “SHMLEDPCTSKKVRAARTLLAKNLSFNITEDELKEVFEDALEIRLVSQDGKSKGIAYIEFKSEADAEKNLEEKQGAEIDGRSVSLYYTGEKGGTRG”, the “soluble on expression in E. coli” value was “soluble”. With “SHMQPFVYMAAPARIVFSAGSSADVAEEIRRLGLSRALVLSTPQQKGDAEALASRLGRLAAGVFSEAAMHTPVEVTKTAVEAYRAAGADCVVSLGGGSTTGLGKAIALRTDAAQIVIPTTYAGSEVTPILGQTENGVKTTMRGPEILPEVVIYDAELTLGLPVAISMTSGLNAMAHAAEALYARDRNPIASMMAVEGLRAMIEALPVVRQAPHDIGARETALYGAWLCGTVLGAVGMSLHHKLCHTLGGSLDLPHAETHAVLLPHTIAYVEEAAPNLLAPLAALVGGRAGAGLFDFAARLGAPSSLAALGVGADDLDPMAELATANPYWCPRPIEKTAIRDLLQRAFEGARPA” the “soluble on expression in E. coli” value was “soluble”. For “SHSLGWIFGMPCNQRSSTKASCEEVFDPTEESYLNIETSL”, the “soluble on expression in E. coli” value was “soluble”. For “SHVETGPNGEQIRKHAGQKRTYKAISESYAFLPREAVTRFLMSCSECQKRMHLNPDGTDHKDNGKPPTLVTSMIDYNMPITMAYMKHMKLQLLNSQQDEDESSIESDEFDMSDSTRMSAVNSDLSSNLEERMQSPQNLHGQQDDDSAAESFNGNETLGHSSIASGGTHSREMGDSNSDGKTGLEQDEQPLNLSDSPLSAQLTSEYRIDDHNSNGKNKYKNLLISDLKMEREARENGSKSPAHSYSSYDSGKNESVDRGAEDLSLNRGDEDEDDHEDHDDSEKVNETDGVEAERLKAFNDESAPADKQCKPEATQATYSTSAVPGSQDVLYINGNGTYSYHSYRGLGGGLLNLNDASSSGPTDLSMKRQLATSSGSSSSSNSRPQLSPTEINAVRQLVAGYRESAAFLLRSADELENLILQQN”, the “soluble on expression in E. coli” value was “soluble”. For “SITDILSAEDIAAALQECQDPDTFEPQKFFQTSGLSKMSASQVKDIFRFIDNDQSGYLDGDELKYFLQKFQSDARELTESETKSLMDAADNDGDGKIGADEFQEMVHS”, the “soluble on expression in E. coli” value was “soluble”. In the case of “SKRFVIGIGGVTNGGKTTLAKSLQKHLPNCSVISQDDFFKPESEIDIDENGFLQYDVLEALNMEKMMSAVSCWMENPGSSAGPAALESAQGVPILIIEGFLLFNYKPLDTIWNRSYFLTVPYEECKRRRSTRVYEPPDPPGYFDGHVWPMYLKHRQEMSSITWDIVYLDGTRSEEDLFSQVYEDVKQELEKQNGL”, the “soluble on expression in E. coli” value is reported as “soluble”. For “SKRVVFVTVGTTSFDALVKAVVSQNVKDELQKRGFTHLLIQMGRGIFFPTKCDGADGSLVVDYFTFSSSIADYIRSASLVISHAGSGSIFETLKLGKPLIVVVNEDLMDNHQCELAEALEERKHLYYTRPHSLHQTLTKMELGSLVQYTPGDGTPVARIIDRFLG”, the “soluble on expression in E. coli” value was “soluble”. In the case of “SLDRGEQGLLKTEPVAEEGEDAVTMLSAPEALTEEEQEELRRELTKVEEEIQTLSQVLAAKEKHLAELKRKLGISSLQEFKQNIAKGWQDVTATNAYKKTSETLSQAGQKASAAFSSVGSVITKKLEDVKNSPTFKSFEEKVENLKSKVGGAKPAGGDFGEVLNSTANATSTMTTEPPPEQMTES”, the “soluble on expression in E. coli” value is reported as “soluble”.
